Results taken from patent publication US7087717B2, “Sp110, a polypeptide component of the nuclear body” (The General Hospital Corporation, priority 2000, dated 2006).

Columns and labels:
HL60 cells = experiment: Sp110 mRNA level by RNA blot after IFN-γ treatment; assay type: cell-based, human; settings: 200 units/ml, 48 hours
Description: To investigate the expression of Sp110 in cells of the monocyte/granulocyte lineage, RNA was prepared from the myeloid precursor cell lines HL60 and NB4 (HL60 cells are available from the American Type Culture Collection, Manassas, Va.). RNA was extracted from these cell lines using the guanidinium isothiocyanate-cesium chloride method (Sambrook et al., Cold Spring Harbor Laboratory, Cold Spring Harbor, N.Y., 1989). The HL60 cells were maintained in RPMI supplemented with 10% fetal calf serum, L-glutamine (2 mM), penicillin (200 units/ml), and streptomycin (200 mg/ml). RNA was fractionated in formaldehyde-agarose gels (5 μg/lane) and equal loading of RNA was confirmed by staining 28S and 18S ribosomal RNA with ethidium bromide. RNA was transferred to nylon membranes and the membranes were hybridized with the radiolabeled XbaI restriction fragment of the Sp110 cDNA or the EcoRI/BamHI restriction fragment of the cDNA encoding human Sp100 (Bloch et al., J. Biol. Chem. 46:29198–29204, 1996). Membranes were washed and analyzed by autoradiography. Low levels of Sp110 mRNA were detected in both NB4 cells and HL60 cells.
To examine the effect of cellular differentiation on Sp110 mRNA, NB4 cells were treated for 48 hours with all trans retinoic acid (ATRA) (1 μM). […] To examine the effect of IFN-γ treatment on Sp110 mRNA levels, HL60 cells were treated with IFN-γ (200 units/ml) for 48 hours.

CBP = experiment: Mammalian two-hybrid assay with GAL4-CBP in COS cells; assay type: cell-based; settings: VP16 fusions, compared with VP16 alone
Description: PPARα interacted with the N-terminal portion of CBP/p300 between amino acid residues 39 and 221. To determine whether Sp110 also interacts with CBP, the mammalian two-hybrid system was used as an assay. In this assay, the GAL4 DNA-binding domain (GAL4) fused to CBP (GAL4-CBP) and a luciferase reporter gene containing GAL4 response elements were expressed in COS cells with either Sp110 fused to the herpes simplex virus VP16 activation domain (VP16-Sp110) or VP16 alone. […] Thus, Sp110 interacts, either directly or indirectly, with CBP. The site of functional interaction between Sp110 and CBP was mapped more specifically to amino acid residues 271–720 of CBP. The Sp110-CBP functional interaction domain is therefore distinct from the PPARα-CBP interaction domain.
To identify the portion of Sp110 that functionally interacts with CBP, the N-terminal or C-terminal portions of Sp110 were fused to VP16 and expressed in COS cells together with GAL4CBP and a reporter gene. […] As described below, studies can be carried out to further delineate the domains that mediate functional interaction between Sp110 and CBP and to test whether Sp110 interacts with CBP directly.

[1] = test system: CAT reporter plasmid containing five GAL4 binding sites and an SV40 enhancer region (pG5SV-BCAT); experiment: GAL4 fusion / CAT reporter gene transcription assay in COS cells; assay type: cell-based
Description: To examine the potential effect of Sp110 on gene transcription, a eukaryotic expression plasmid encoding Sp110 fused to the DNA-binding domain of GAL4 (pBXG-Sp1110) was co-transfected with a CAT reporter plasmid containing five GAL4 binding sites and an SV40 enhancer region (pG5SV-BCAT) into COS cells.
To identify the portion of Sp110 that enhances reporter gene expression, DNA segments encoding fragments of Sp110 fused to GAL4 were expressed with a reporter gene in COS cells. […] The mechanism by which Sp110 enhances PPARα-mediated gene transcription can be investigated, as described below, by identifying proteins that interact with the activation domain and SAND domain.

RARα response element = experiment: RAR transcriptional co-activation reporter assay; assay type: cell-based; settings: for signal transduction through RARα / expression of the reporter gene: expressed with RARα
Description: Experiments were also performed to determine whether Sp110 could function as a retinoic acid receptor (RAR) transcriptional co-activator. […] The extent of reporter gene activation by Sp110 was similar to that induced by the nuclear body component PML.

PPARα = PPARα co-activation reporter assay (PPRE) in COS cells; assay type: cell-based; settings: COS cells co-transfected with PPARα; compared with PPARα expressed alone
Description: Sp110 also acted as a co-activator of PPARα. […] Sp110 may interact with nuclear hormone receptors via an LXXLL domain. To determine whether Sp110 interacts with PPARα via the LULL domain, oligonucleotides and PCR were used to prepare a mutant Sp110 protein (Sp110m) in which two of the three leucine residues were changed, one to valine and one to alanine (LXXVA).

PPARγ receptor = experiment: PPARγ signal transduction reporter assay; assay type: cell-based

signal transduction through the PPARγ receptor (PPARγ receptor) | Molecule | GAL4-CBP-induced luciferase reporter gene activity (CBP) | reporter gene expression by fragments of Sp110 fused to GAL4 [1] | signal transduction through RARα / expression of the reporter gene (RARα response element) | agonist-induced expression of the PPRE reporter gene / activation of the PPARα receptor (PPARα) | further results
– | IFN-γ: interferon (protein, UniProt P01579 24-161, looked up) Interferon gamma: QDPYVKEAENLKKYFNAGHSDVADNGTLFLGILKNWKEESDRKIMQSQIVSFYFKLFKNFKDDQSIQKSVETIKEDMNVKFFNSNKKKRDDFEKLTNYSVTDLNVQRKAIHELIQVMAELSPAAKTGKRKRSQMLFRG | – | – | – | – | Sp110 mRNA level (HL60 cells): marked increase
– | C-terminal portion: C-terminal portion of Sp110, containing the PHD and the bromodomain, fused to VP16 or GAL4 (protein, left off: large carriers, C-terminal portion of Sp110, containing the PHD and the bromodomain, fused to VP16 or GAL4) KRKNSDECEVCCQGGQLLCCGTCPRVFHEDCHIPPVEAKRMLWSCTFCRMKRSSGSQQCHHVSKTLERQMQPQDQLIRDYGEPFQEAMWLDLVKERLITEMYTVAWFVRDMRLMFRNHKTFYKASDFGQVGLDLEAEFEKDLKDVLGFHEANDGGFWTLP | enhanced | Neither the N-terminal (Sp100-like domain), nor the C-terminal (PHD/bromodomain) portions of Sp110 increased expression of the reporter gene | – | – | –
enhanced signal transduction | Sp110: novel 110 kDa polypeptide component of the nuclear body, 689 amino acids, SEQ ID NO:2 (protein, listed as Homo sapiens) MFTMTRAMEEALFQHFMHQKLGIAYAIHKPFPFFEGLLDNSIITKRMYMESLEACRNLIPVSRVVHNILTQLERTFNLSLLVTLFSQINLREYPNLVTIYRSFKRVGASYERQSRDTPILLEAPTGLAEGSSLHTPLALPHHKPPQPSCSPCAPRVSEPGTSSQQSTEILSESPSPSDPVLPLPALIQEGRSTSVTNDKLTSKMNAEEDSEEMPSLLTSTVQVASDNLIPQIRDKEDPQEMPHSPLGSMPEIRDNSPEPNDPEEPQEVSSTPSDKKGKKRKRCIWSTPKRRHKKKSLPRGTASSRHGIQKKLKRVDQVPQKKDDSTCNSTVETRAQKARTECARKSRSEEIIDGTSEMNEGKRSQKTPSTPRRVTQGAASPGHGIQEKLQVVDKVTQRKDDSTWNSEVMMRVQKARTKCARKSRSKEKKKEKDICSSSKRRFQKNIHRRGKPKSDTVDFHCSKLPVTCGEAKGILYKKKMKHGSSVKCIRNEDGTWLTPNEFEVEGKGRNAKNWKRNIRCEGTTLGELLKRKNSDECEVCCQGGQLLCCGTCPRVFHEDCHIPPVEAKRMLWSCTFCRMKRSSGSQQCHHVSKTLERQMQPQDQLIRDYGEPFQEAMWLDLVKERLITEMYTVAWFVRDMRLMFRNHKTFYKASDFGQVGLDLEAEFEKDLKDVLGFHEANDGGFWTLP | – | – | enhanced signal transduction | markedly enhanced | ATRA-induced expression of the reporter gene (RARα response element; COS cells, reporter with three copies of the RARα response element): significantly enhanced
enhanced signal transduction | Sp110m: mutant Sp110 protein in which two of the three LXXLL leucine residues were changed, one to valine and one to alanine (LXXVA) (protein) MFTMTRAMEEALFQHFMHQKLGIAYAIHKPFPFFEGLLDNSIITKRMYMESLEACRNLIPVSRVVHNILTQLERTFNLSLLVTLFSQINLREYPNLVTIYRSFKRVGASYERQSRDTPILLEAPTGLAEGSSLHTPLALPHHKPPQPSCSPCAPRVSEPGTSSQQSTEILSESPSPSDPVLPLPALIQEGRSTSVTNDKLTSKMNAEEDSEEMPSLLTSTVQVASDNLIPQIRDKEDPQEMPHSPLGSMPEIRDNSPEPNDPEEPQEVSSTPSDKKGKKRKRCIWSTPKRRHKKKSLPRGTASSRHGIQKKLKRVDQVPQKKDDSTCNSTVETRAQKARTECARKSRSEEIIDGTSEMNEGKRSQKTPSTPRRVTQGAASPGHGIQEKLQVVDKVTQRKDDSTWNSEVMMRVQKARTKCARKSRSKEKKKEKDICSSSKRRFQKNIHRRGKPKSDTVDFHCSKLPVTCGEAKGILYKKKMKHGSSVKCIRNEDGTWLTPNEFEVEGKGRNAKNWKRNIRCEGTTLGELLKRKNSDECEVCCQGGQLLCCGTCPRVFHEDCHIPPVEAKRMLWSCTFCRMKRSSGSQQCHHVSKTLERQMQPQDQLIRDYGEPFQEAMWLDLVKERLITEMYTVAWFVRDMRLMFRNHKTFYKASDFGQVGLDLEAEFEKDLKDVLGFHEANDGGFWTLP | – | – | also enhanced expression of the reporter gene | less than wild-type Sp110 | –
– | N-terminal portion: N-terminal portion of Sp110, containing the Sp100-like region, fused to VP16 or GAL4 (protein, left off: large carriers, N-terminal portion of Sp110, containing the Sp100-like region, fused to VP16 or GAL4) MFTMTRAMEEALFQHFMHQKLGIAYAIHKPFPFFEGLLDNSIITKRMYMESLEACRNLIPVSRVVHNILTQLERTFNLSLLVTLFSQINLREYPNLVTIYRSFKRVGASYERQSRDTPILLEAPTGLAEGSSLHTPLALPHHKPPQPSCSPCAPRVSEPGTSSQQSTEILSESPSPSDPVLPLPALIQEGRSTSVTNDKLTSKMNAEEDSEEMPSLLTSTVQVASDNLIP | did not | Neither the N-terminal (Sp100-like domain), nor the C-terminal (PHD/bromodomain) portions of Sp110 increased expression of the reporter gene | – | – | –
